Consider two molecules from publication doi:10.1101/2025.10.31.685773 (bioRxiv, 2025).

The target of series [1] is TtCoAT (TT_C1083, CoA transferase from Thermus thermophilus HB27) with C-terminal (His)6-tag (Thermus thermophilus HB27) (UniProt Q72IP9). Description: cryo-EM structure.
The target is the same in series [2]. Kind of series: cryo-EM structure. This is another data set of the same source.
For series [3] the target is unchanged. Description: SEC. (Size exclusion chromatography separates by hydrodynamic size, large species first.)
The series “cryo-EM structure” deals with the molecule itself. Description: cryo-EM structure.

By stoichiometry N is commonly meant the number of molecules, sites or subunits per partner or assembly. For the molecule “TtCoAT (TT_C1083, CoA transferase from Thermus thermophilus HB27) with C-terminal (His)6-tag (from UniProt Q72IP9 1-444) (enzyme)”, the stoichiometry N in series [1] is 2; in series [2], 2; in series [3], 4.

B1: ADLP (TT_C1082, alanine dehydrogenase-like protein from Thermus thermophilus HB27) with N-terminal Strep-tag (natural protein)
chain: MEFGVPKERSGGEIPERRVPLTPQGVRELVASGHRVYVERGAGEGAGFPDEAYEEAGARLVGREEAFGRPQVVLKVARPTLEEVGLMRKNAVLMAFLHLAVAESPLVEAMAQKGLTAIGYELVGEEGRRPVLKAMSEIAGRMAPQLAGRLLEAPQGPGILLSGLVGIPPADVVVLGAGVLGRAAARAFLGAGASVHLLDRALPPLEEAAREAPGAITALVTQDRLERYVAFADVLVGAVAVPGERTPLLLTRGLLARMRPGSVLLDFSIDQGGVSETSRPGVYQEMGVTHFCLPNVPALVPRTASHALTATLLPYLLRIQEDPLALPGLRQGAYLLFGEKGGHLE
B1: the “stoichiometry N” value in the series “cryo-EM structure” was determined as 6.
